Laboratory results from patent US20240117030A1 (Pfizer, published 2024).

How the values were obtained:
Assay in all cases: cell-based or functional assay
human IL-4 [1] = molecular target: T1, human IL-4 (human, UniProt P05112 25-153)
T1 sequence (looked up): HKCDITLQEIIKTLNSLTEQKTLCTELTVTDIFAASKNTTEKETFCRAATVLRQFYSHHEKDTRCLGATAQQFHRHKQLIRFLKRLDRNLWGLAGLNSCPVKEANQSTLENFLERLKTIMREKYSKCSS

human IL-13 = human IL-13 (human, UniProt P35225 35-146)
human IL-4 [2] = molecular target: T2, human IL-4 (human, UniProt P05112 25-153); remark: listed apart in the source
T2 sequence (looked up): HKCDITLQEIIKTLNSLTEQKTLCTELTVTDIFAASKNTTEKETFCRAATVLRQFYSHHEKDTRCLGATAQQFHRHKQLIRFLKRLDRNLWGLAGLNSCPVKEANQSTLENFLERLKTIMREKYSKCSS

[3] = molecular target: T3, recombinant human IL-33 (R&D Systems 3625-IL), reduced with DTT (human, UniProt O95760 112-270, limits assumed)
T3 sequence (looked up): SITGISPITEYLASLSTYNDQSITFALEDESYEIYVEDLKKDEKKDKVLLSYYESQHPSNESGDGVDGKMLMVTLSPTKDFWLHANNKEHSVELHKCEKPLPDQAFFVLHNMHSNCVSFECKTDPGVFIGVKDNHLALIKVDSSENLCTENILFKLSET

human IL-13, sequence (P35225 35-146 limits assumed): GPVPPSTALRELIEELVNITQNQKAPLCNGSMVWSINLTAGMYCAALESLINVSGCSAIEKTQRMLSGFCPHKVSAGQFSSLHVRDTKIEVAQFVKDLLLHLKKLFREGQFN

B1: IL13433-0607 (trispecific antibody, human IgG1, kappa)
heavy: EVQLVESGGGLVQPGGSLRLSCAASGFTFSSYAMSWVRQAPGKGLEWVASISTGDTTYYPDSVKGRFTISRDNAKNSLYLQMNSLRAEDTAVYYCARNEGYYFGLTQWGRGTLVTVSSASTKGPSVFPKAPSSKSTSGGTAALGCLVKDYFPEPVTVSWNSGALTSGVHTFPAVLQSSGLYSLSSSVTVPSSSLGTQTYICNVNHKPSNTKVDKKVEPKSCDKTHTCPPCPAPEAAGAPSVFLFPPKPKDTLMISRTPEVTCVVVDVSHEDPEVKFNWYVDGVEVHNAKTKPREEQYNSTYRVVSVLTVLHQDWLNGKEYKCKVSNKALPAPIEKTISKAKGQPREPQVCTLPPSREEMTKNQVSLWCLVKGFYPSDIAVEWESNGQPENNYKTTPPVLDSDGSFFLYSKLTVDKSRWQQGNVFSCSVLHEALHSHYTQKSLSLSPGK
chain 1: DIQMTQSPSSLSASVGDRVTITCRASQPISKHLDWYQQKPGKAPKLLIYFTNNLQTGVPSRFSGSGSGTDFTLTISSLQPEDFATYYCFQYNQGWTFGGGTKVEIKRTVAAPSVFIFPPSDEQLKSGTASVVCLLNNFYPREAKVQWKVDNALQSGNSQESVTEQDSKDSTYSLSSTLTLSKADYEKHKVYACEVTHQGLSSPVTKSFNRGECGGGGSEVTLRESGPALVKPTQTLTLTCTFSGFSLSNFGEGLSWIRQPPGKGLEWLAHIYWDDDKRYSTSLKTRLTISKDTSRNQVVLTMTNMDPVDTATYYCARRETVFYWYFDVWGQGTTVTVSSASTKGPSVFPEAPSSKSTSGGTAALGCLVKDYFPEPVTVSWNSGALTSGVHTFPAVLQSSGLYSLGSVVTVPSSSLGTQTYICNVNHKPSNTKVDKKVEPKSCDKTHTCPPCPAPEAAGAPSVFLFPPKPKDTLMISRTPEVTCVVVDVSHEDPEVKFNWYVDGVEVHNAKTKPREEQYNSTYRVVSVLTVLHQDWLNGKEYKCKVSNKALPAPIEKTISKAKGQPREPQVYTLPPCREEMTKNQVSLSCAVKGFYPSDIAVEWESNGQPENNYKTTPPVLDSDGSFFLVSKLTVDKSRWQQGNVFSCSVLHEALHSHYTQKSLSLSPGK
light 1: DIQMTQSPSSLSASVGDRVTITCRASESVDHFGWSLVHWYQQKPGKAPKLLIYRADSLETGVPSRFSGSGSGTDFTLTISSLQPEDFATYYCQQSNEDPWTFGGGTKVEIKRTVAAPSVFIFPPSDEQLKSGTASVSCLLNNFYPREAKVQWKVDNALQSGNSQESVTEQDSKDSTYSLDSTLTLSKADYEKHKVYACEVTHQGLSSPVTKSFNRGEC
light 2: DIQMTQSPSSLSASVGDRVTITCRASQSVDEEGDSYMNWYQQKPGKAPKLLIYAASNLESGVPSRFSGSGSGTDFTLTISSLQPEDFATYYCQQSHKDPPTFGGGTKVEIKRTVAAPSVFIFPPSDEQLKSGTASVSCLLNNFYPREAKVQWKVDNALQSGNSQESVTEQDSKDSTYSLKSTLTLSKADYEKHKVYACEVTHQGLSSPVTKSFNRGEC
chain 2: EVQLVESGGGLVQPGGSLRLSCAASGFTFSSYWMYWVRQAPGKGLEWVAAITPNAGEDYYPESVKGRFTISRDNAKNSLYLQMNSLRAEDTAVYYCARGHYYYTSYSLGYWGQGTLVTVSSASTKGPSVFPLAPSSKSTSGGTAALGCLVKDYFPEPVTVSWNSGALTSGVHTFPAVLQSSGLYSLSSVVTVPSSSLGTQTYICNVNHKPSNTKVDKKVEPKSC
fold loss in IL-4 neutralization (CD23 bioassay) relative to IL13433-0006 (human IL-4 [1]): ~6.5 fold

B2: IL413TSLP-0248 (other)
heavy: EVQLVESGGGLVQPGGSLRLSCAASGFTFSSYAMSWVRQAPGKGLEWVASISSGDTTYYPDSVKGRFTISRDNAKNSLYLQMNSLRAEDTAVYYCARNEGYYFGLTLWGQGTLVTVSSASTKGPSVFPKAPSSKSTSGGTAALGCLVKDYFPEPVTVSWNSGALTSGVHTFPAVLQSSGLYSLSSSVTVPSSSLGTQTYICNVNHKPSNTKVDKKVEPKSCDKTHTCPPCPAPEAAGAPSVFLFPPKPKDTLMISRTPEVTCVVVDVSHEDPEVKFNWYVDGVEVHNAKTKPREEQYNSTYRVVSVLTVLHQDWLNGKEYKCKVSNKALPAPIEKTISKAKGQPREPQVCTLPPSREEMTKNQVSLWCLVKGFYPSDIAVEWESNGQPENNYKTTPPVLDSDGSFFLYSKLTVDKSRWQQGNVFSCSVMHEALHNHYTQKSLSLSPGK
chain 1: SYVLTQPPSVSVAPGQTARITCGGNNLGSKSVHWYQQKPGQAPVLVVYDDSDRPSWIPERFSGSNSGNTATLTISRGEAGDEADYYCQVWDSSSDHVVFGGGTKLTVLGQPKAAPSVTLFPPSSEELQANKATLVCLISDFYPGAVTVAWKADSSPVKAGVETTTPSKQSNNKYAASSYLSLTPEQWKSHRSYSCQVTHEGSTVEKTVAPTECSGGGGSEVTLRESGPALVKPTQTLTLTCTFSGFSLSNFGEGLSWIRQPPGKGLEWLAHIYWDDDKRYNPSLKSRLTISKDTSRNQVVLTMTNMDPVDTATYYCARRETVFYWYFDVWGQGTTVTVSSASTKGPSVFPEAPSSKSTSGGTAALGCLVKDYFPEPVTVSWNSGALTSGVHTFPAVLQSSGLYSLGSVVTVPSSSLGTQTYICNVNHKPSNTKVDKKVEPKSCDKTHTCPPCPAPEAAGAPSVFLFPPKPKDTLMISRTPEVTCVVVDVSHEDPEVKFNWYVDGVEVHNAKTKPREEQYNSTYRVVSVLTVLHQDWLNGKEYKCKVSNKALPAPIEKTISKAKGQPREPQVYTLPPCREEMTKNQVSLSCAVKGFYPSDIAVEWESNGQPENNYKTTPPVLDSDGSFFLVSKLTVDKSRWQQGNVFSCSVMHEALHNHYTQKSLSLSPGK
light 1: DIQMTQSPSSLSASVGDRVTITCKASESVDHFGWSLVHWYQQKPGKAPKLLIYRASNLESGVPSRFSGSGSGTDFTLTISSLQPEDFATYYCQQSNEDPWTFGGGTKVEIKRTVAAPSVFIFPPSDEQLKSGTASVSCLLNNFYPREAKVQWKVDNALQSGNSQESVTEQDSKDSTYSLDSTLTLSKADYEKHKVYACEVTHQGLSSPVTKSFNRGEC
light 2: DIQMTQSPSSLSASVGDRVTITCKASQSVDEDGDSYMNWYQQKPGKAPKLLIYAASNLESGVPSRFSGSGSGTDFTLTISSLQPEDFATYYCQQSNEDPPTFGGGTKVEIKRTVAAPSVFIFPPSDEQLKSGTASVSCLLNNFYPREAKVQWKVDNALQSGNSQESVTEQDSKDSTYSLKSTLTLSKADYEKHKVYACEVTHQGLSSPVTKSFNRGEC
chain 2: not shown
a-hIL-13 bioassay (IC50, pM) (human IL-13): 15.6 pM
a-hIL-4 bioassay IC50, pM) (human IL-4 [2]): 5.11 pM

B3: IL4-0002 (antibody, human IgG1, kappa)
heavy: EVTLRESGPALVKPTQTLTLTCTFSGFSLSNFGEGLSWIRQPPGKGLEWLAHIYWDDDKRYNPSLKSRLTISKDTSRNQVVLTMTNMDPVDTATYYCARRETVFYWYFDVWGQGTTVTVSSASTKGPSVFPLAPSSKSTSGGTAALGCLVKDYFPEPVTVSWNSGALTSGVHTFPAVLQSSGLYSLSSVVTVPSSSLGTQTYICNVNHKPSNTKVDKKVEPKSCDKTHTCPPCPAPEAAGAPSVFLFPPKPKDTLMISRTPEVTCVVVDVSHEDPEVKFNWYVDGVEVHNAKTKPREEQYNSTYRVVSVLTVLHQDWLNGKEYKCKVSNKALPAPIEKTISKAKGQPREPQVYTLPPSREEMTKNQVSLTCLVKGFYPSDIAVEWESNGQPENNYKTTPPVLDSDGSFFLYSKLTVDKSRWQQGNVFSCSVMHEALHNHYTQKSLSLSPGK
light: DIQMTQSPSSLSASVGDRVTITCKASQSVDEDGDSYMNWYQQKPGKAPKLLIYAASNLESGVPSRFSGSGSGTDFTLTISSLQPEDFATYYCQQSNEDPPTFGGGTKVEIKRTVAAPSVFIFPPSDEQLKSGTASVVCLLNNFYPREAKVQWKVDNALQSGNSQESVTEQDSKDSTYSLSSTLTLSKADYEKHKVYACEVTHQGLSSPVTKSFNRGEC
a-hIL-4 bioassay IC50, pM) (human IL-4 [2]): 2.39 pM

B4: IL13-0001 (antibody, human IgG1, kappa, V domains shown)
VH: EVQLVESGGGLVQPGGSLRLSCAASGFTFSSYAMSWVRQAPGKGLEWVASISSGDTTYYPDSVKGRFTISRDNAKNSLYLQMNSLRAEDTAVYYCARNEGYYFGLTLWGQGTLVTVSS
VL: DIQMTQSPSSLSASVGDRVTITCKASESVDHFGWSLVHWYQQKPGKAPKLLIYRASNLESGVPSRFSGSGSGTDFTLTISSLQPEDFATYYCQQSNEDPWTFGGGTKVEIKR
a-hIL-13 bioassay (IC50, pM) (human IL-13): 5.79 pM

B5: IL33-0713 (antibody, IgG1, V domains shown)
VH: EVQLVESGGGLVQPGGSLRLSCAASGFTFSSYWMYWVRQAPGKGLEWVAAITPNKGVDYYPESVKGRFTISRDNAKNSLYLQMNSLRAEDTAVYYCARGHYYYTSYSLGYWGQGTLVTVSS
VL: DIQMTQSPSSLSASVGDRVTITCRASQPISKHLDWYQQKPGKAPKLLIYFTKNLVTGVPSRFSGSGSGTDFTLTISSLQPEDFATYYCFQYNQGWTFGGGTKVEIK
IC50 [nM] versus reduced human IL-33 (R&D), IC50 (AVE) [3]: 0.012 nM

B6: IL33-0714 (antibody, IgG1, V domains shown)
VH: EVQLVESGGGLVQPGGSLRLSCAASGFTFSSYWMYWVRQAPGKGLEWVAAITPNKGVDYYPESVKGRFTISRDNAKNSLYLQMNSLRAEDTAVYYCARGHYYYTSYSLGYWGQGTLVTVSS
VL: DIQMTQSPSSLSASVGDRVTITCRASQPISKHLDWYQQKPGKAPKLLIYFTKNLKTGVPSRFSGSGSGTDFTLTISSLQPEDFATYYCFQYNQGWTFGGGTKVEIK
IC50 [nM] versus reduced human IL-33 (R&D), IC50 (AVE) [3]: 0.009 nM

B7: IL33-0715 (antibody, IgG1, V domains shown)
VH: EVQLVESGGGLVQPGGSLRLSCAASGFTFSSYWMYWVRQAPGKGLEWVAAITPNKGVDYYPESVKGRFTISRDNAKNSLYLQMNSLRAEDTAVYYCARGHYYYTSYSLGYWGQGTLVTVSS
VL: DIQMTQSPSSLSASVGDRVTITCRASQPISKHLDWYQQKPGKAPKLLIYFTKNLQSGVPSRFSGSGSGTDFTLTISSLQPEDFATYYCFQYNQGWTFGGGTKVEIK
IC50 [nM] versus reduced human IL-33 (R&D), IC50 (AVE) [3]: 0.012 nM
